We go through one substance from PMC12135134.

For this experiment, the target named is recombinant human IgG1 Fc fragment (recFc), residues 236–444 of the rituximab heavy chain, non-glycosylated homodimer (human). As to the kind of experiment: crystal structure; co-crystal of the complex isolated by SEC after mixing affitin and Fc chain 4:1; hanging drop, 20 °C, 24% w/v PEG8000, 0.1 M Tris/HCl pH 8.5; space group P2_(1), 2.90 Å. (Size exclusion chromatography separates by hydrodynamic size, large species first.)

In the case of “recombinant human IgG1 Fc fragment (recFc), residues 236–444 of the rituximab heavy chain, non-glycosylated homodimer (domain or fragment)”, the stoichiometry N (chains in the oligomer) worked out at 2.
